Binding result and Kd data for 16 molecules are collected here from publication PMC11162469, “Discovery of RXFP2 genetic association in resistant hypertensive men and RXFP2 antagonists for the treatment of resistant hypertension” (Scientific Reports, 2024).

Usually Kd stands for a measure of binding affinity in units of concentration.

Common to all, as to conditions: both partners purified
The target in assay [1] is T1, human LDLa-linker protein (huRXFP2-LDLa-linker(38-105)) (Homo sapiens, UniProt Q8WXD0).
T1 construct: relaxin family peptide receptor 2 (RXFP2), human, LDLa module and linker, residues 38-105; Expressed as LDLa-linker, enterokinase site, rat Fc, 8xHis; The Biacore methods say only 'LDLa-linker protein'; also called human LDLa-linker domain; source: Expi293, transfected, purified (Histrap excel, SEC); enterokinase digestion, Hispur Ni resin, Superdex 200; not shown: rat Fc, C-terminal, cleaved; …
T1 sequence (Q8WXD0 38-105): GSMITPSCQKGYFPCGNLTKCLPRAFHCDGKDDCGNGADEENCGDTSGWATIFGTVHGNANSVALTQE
As to the kind of experiment: SPR; Biacore S200; goat anti-rat Fc gamma immobilised on a Series S CM5 chip, purified recombinant rat anti-RXFP2 antibodies captured at 5 µg/mL; rat or human LDLa-linker protein flowed as analyte at 20, 10, 5, 2.5, 1.75 and 0 nM; 1:1 fit model. Background: SPR reads the build-up and loss of mass on a sensor chip optically.

For assay [2], the target named is T2, rat LDLa-linker protein (ratRXFP2-LDLa-linker(20-88)) (Rattus norvegicus, UniProt Q5ECL0).
T2 construct: relaxin family peptide receptor 2 (RXFP2), rat, LDLa module and linker, residues 20-88; Expressed as LDLa-linker, enterokinase site, rat Fc, 8xHis; The Biacore methods say only 'LDLa-linker protein'; also called rat LDLa-linker domain; source: Expi293, transfected, purified (Histrap excel, SEC); enterokinase digestion, Hispur Ni resin, Superdex 200; not shown: rat Fc, C-terminal, cleaved; 8xHis, …
T2 sequence (Q5ECL0 entry or part of it): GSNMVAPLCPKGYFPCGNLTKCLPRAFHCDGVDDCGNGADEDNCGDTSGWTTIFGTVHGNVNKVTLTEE
Described as above.

The target of assay [3] is T3, linker-less human LDLa peptide (Q8WXD0 43-80) (Homo sapiens, UniProt Q8WXD0, not fully specified).
T3 construct: relaxin family peptide receptor 2 (RXFP2), human, LDLa module without the linker, residues 43-80; also called LDLa linker-less domain
T3 chain: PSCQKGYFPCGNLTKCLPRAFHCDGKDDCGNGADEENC
Nature of the assay: ELISA; human LDLa peptide (Q8WXD0 43-80) immobilised at 1 µg/mL in PBS on Maxisorp plates overnight at 4 °C; purified antibodies from 5 µg/mL, diluted 1:2 for 8 points, 1 h at room temperature; HRP secondary antibody, TMB.

B1: RXFP2 mAb 1G1 (antibody, V domains shown)
VH: EVQLQQSGPELVKPGASVKMSCKASGYTFTDYNMHWVKQKPGQGLEWIGYINPYNDGTEYNEKFKGKATLTSDKSSSTAYMDLSSLTSEDSAVYYCARGLWFAMNYWGQGTSVTVSS
VL: DIQMTQSSSSFSVSLGDRVTITCKASEDIYNRLAWYQQKPGNTPRLLISGATILETGVPSRFSGSGSGKDYTLSIISLQTEDVATYYCQQYWIIPPTFGGGTKLEIK
notes: heavy chain variable domain; rat IgG2b heavy chain constant region (rat IgG2b backbone, in-house construct); Recombinant in a rat IgG2b backbone; found as a mouse hybridoma clone; source: Expi293, transfected, purified (Protein G)
For B1, the binding result in assay [1] was “no binding (tested: 20 nM (highest analyte concentration))”. In assay [2], the Kd worked out at 0.18 nM.

B2: RXFP2 mAb 3F3 (antibody, V domains shown)
VH: QVQLQQPGSVLVRPGASVKLSCKASGYIFTSYWMHWVKQRPGQGLEWIGEIYPNSGRTSYNEKFKGKATVTVDTSSSTAYVDLSSLTSEDSAVYYCASGGHWFAYWGQGTLVTVSA
VL: DIQMTQSSSSFSVSLGDRVTITCKASEDIYNRLAWYQQKPGNAPRLLISGATSLEAGVPSRFSGSGSGKDYTLSITSLQTEDVSTYYCQQYWITPYTFGGGTKLEIK
notes: as for B1
On to B2, for which, in assay [1], the binding result is recorded as “no binding (tested: 20 nM (highest analyte concentration))”. Also, the Kd in assay [2] turned out to be 11.4 nM.

B3: RXFP2 mAb 4H1 (antibody, V domains shown)
VH: QIQLVQSGPELKKPGETVKISCKTSGYTFTKYPMHWVKQAPGEGLKWMGWINTYSGLPTFADDFKGRFAFSLETSANTADLQINNLKNEDMATYFCAREGKKLSGYFDYWGQGTTLTVSS
VL: DIKMTQSPSSMYASLGERVTITCKASQDINSYLTWFQQKPGQSPKTLIYRANRFVDGVPSRFSGSGSGQDYSLTITSLEYEDMGIYYCLQYDEFPYTFGGGTQLEIK
notes: as for B1
In the case of B3, the binding result in assay [1] was “no binding (tested: 20 nM (highest analyte concentration))”. Also, in assay [2], the Kd stood at 1.01 nM.

B4: RXFP2 mAb 4G7 (antibody, V domains shown)
VH: EVKLVESGGGLVQPGASLRLSCATSGFTFTDYYMSWVRQPPGKALEWLGFIRNKATGYTTEYSASVKGRFTISRDNSQSILYLQMNTLRAEDSATYYCARDLYYGDWYFDVWGAGTTVTVSS
VL: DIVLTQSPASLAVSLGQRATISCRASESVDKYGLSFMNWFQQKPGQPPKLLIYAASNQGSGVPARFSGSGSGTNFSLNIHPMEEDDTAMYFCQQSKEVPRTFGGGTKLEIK
notes: as for B1
For B4, the binding result in assay [1] is “no binding (tested: 20 nM (highest analyte concentration))”.

B5: RXFP2 mAb 4B1 (antibody, V domains shown)
VH: QVQLQQSGAELVRPGSSVRISCKASGYAFSNSWINWVKQRPGQGLEWMGQIYPGDGNTNYNGRFKDKATLTADKSSSTAYMQLSSLTSEDSAVYFCARDHNYWGQGTTLTVSS
VL: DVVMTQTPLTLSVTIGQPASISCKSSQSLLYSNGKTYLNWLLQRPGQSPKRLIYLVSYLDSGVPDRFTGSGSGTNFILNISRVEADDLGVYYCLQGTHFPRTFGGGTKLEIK
notes: as for B1
As for B5, the binding result in assay [3] was “no binding (tested: 5 µg/mL (highest antibody concentration))”. The dissociation constant (Kd) is 2.75 nM in assay [1] and 1.97 nM in assay [2].

B6: RXFP2 mAb 1F2 (antibody, V domains shown)
VH: QVQLKQSGPGLVQPSQSLSITCTVSGFSLTAYGVNWVRQSPGKGLEWLGVIWSGGNTDYNAPFISRLSITKDNSKSQVFFKMNSLEADDTAIYYCARAKGYYAMDYWGQGTSVTVSS
VL: DIQMTQSPASLSVSVGESVTITCRATENIYSNLVWYQQKQGQSPQLLVYAVTSLADGVPSRFSGSGSGTQYSLKINSLQSEDFGTYYCQHFWGTPYTFGGGTKLEIK
notes: as for B1
B6: the binding result in assay [1] was “no binding (tested: 20 nM (highest analyte concentration))”. Further, the Kd in assay [2] is 0.69 nM.

B7: RXFP2 mAb 3G4 (antibody, V domains shown)
VH: QVQLKESGPGLVAPSQSLSITCTVSGFSLTSYGVSWVRQPPGKGLEWLGVIWGDGSTNYHSALISRLSISKDNSKSQVFLKLNSLQTDDTATYYCAKSLGYYAMDYWGQGTSVTVSS
VL: DIQMTQSPASLSVSVGETVTITCRASENIYSNLVWYQQKQGKSPQLLVYAATNLAEGVPSRFSGSGSGTQYSLKINSLQSEDFGSYYCQHFWGPPWTFGGGTKLEIK
notes: as for B1
For B7, the binding result in assay [1] is “no binding (tested: 20 nM (highest analyte concentration))”. In addition, the Kd in assay [2] came to 2.07 nM.

B8: RXFP2 mAb 4B8 (antibody, V domains shown)
VH: QVQLKQSGPGLVQPSQSLSITCTVSGFSLSRYGVHWVRQSPGKGLEWLGVIWSGGSTEYNAVFKSRLSISKDNSKSQVFFKMNSLQANDTAIYYCVRADGYYAMEYWGQGTSVTVSS
VL: DIQMTQSPASLSVSVGETVTITCRASENIYSNLAWYQQKQGKSPQLLVYAVTNLADGVPSRFSGSGSGTQYSLKINSLQSEDFGNYYCQHFWGTPYTFGGGTKLEIK
notes: as for B1
On to B8, for which the binding result in assay [1] was “no binding (tested: 20 nM (highest analyte concentration))”. Moreover, in assay [2], the Kd is 0.55 nM.

B9: RXFP2 mAb 4H5 (antibody, V domains shown)
VH: QVQLKQSGPGLVQPSQSLSITCTVSGFSLTNYGVHWVRQSPGKGLEWLGVIWRDGNTDYNAAFMSRLSITKDNSKSQVFFEMNSLQVDDTAIYYCCRGDGYYAMGYWGQGTSVTVSS
VL: DIQMTQSPASLSVSVGETVTITCRASENIYSNLAWYQQRQGRSPQLLVYAATNLADGVPSRFSGSGSGTQYSLKINSLQSEDFGNYYCQHFWGSPRTFGGGTKLEIK
notes: as for B1
For the molecule B9, the binding result in assay [1] is “no binding (tested: 20 nM (highest analyte concentration))”. Besides, in assay [2], the Kd stood at 0.35 nM.

B10: RXFP2 mAb 3H1 (antibody, V domains shown)
VH: QVQLKETGPGLVAPSQSLSITCTVSGFSLTNYGVNWVRQPPGKGLEWLVVIWSDGSTNYNSALKSRLSISKDNSKSQVFLKMNSLQTDDTAMYYCARQQGYYAMDYWGQGTSVIVSS
VL: DIQMTQSPASLSVSVGETVTITCRASENIYSNLAWYQQKQGKSPQLLVYAVTNLADGVPSRFSGSGSGTQYSLKINSLQSEDFGSYYCQHFWGPPYTFGGGTKLEIK
notes: as for B1
With B10, in assay [1], the binding result is “no binding (tested: 20 nM (highest analyte concentration))”. The Kd in assay [2] was found to be 1.89 nM.

B11: RXFP2 mAb 4H2 (antibody, V domains shown)
VH: QVQLRQSGPSLVQPSQSLSITCTVSGFSLTNYGVHWVRQSPGKGLEWLGVIWRGGNTDHNAAFMSRLSITKDNSESQVFFKMNSLQVDDTAIYYCAKAEGYYALDYWGQGTSVTVYS
VL: DIQMTQSPASLSVSVGETVTITCRASENIYSNLAWYQQKQGKSPQLLVYAVTNLADGVPSRFSGSGSGTQYSLKINSLQSEDFGSYYCQHFWGTPWTFGGGTKLEIK
notes: as for B1
Regarding B11, in assay [1], the binding result is reported as “no binding (tested: 20 nM (highest analyte concentration))”. In assay [2], the Kd worked out at 0.32 nM.

B12: RXFP2 mAb 2D4 (antibody, V domains shown)
VH: QVQLKESGPGLVAPSQSLSITCTVSGFSLTTYGISWVRQPPGKGLEWLGVIWTGGGTNYNSALKSRLSISKDNSKSQVFLKMNSLQTDDTARYYCARTEGYYVMDYWGQGTSVTVSS
VL: DIQMTQSPASLSVSVGETVTITCRASENIYSNLVWYQQKQGKSPQLLVYAATNLADGVPSRFSGSGSGTQYSLKINNLQSEDFGTYYCQHFWGPPWTFGGGTKLEIK
notes: as for B1
For B12, the binding result in assay [1] is given as “no binding (tested: 20 nM (highest analyte concentration))”. Also, the Kd in assay [2] was 0.52 nM.

B13: RXFP2 mAb 3F1 (antibody, V domains shown)
VH: QVQLKESGPGLVAPSQSLSITCTVSGFSLTDYGVSWIRQPPGKGLEWLGVIWGGGSTDYNPALKSRLSISKDNSKSQVFLKMNSLQADDTAMYYCVKHEGYYAMDYWGQGTSVTVSS
VL: DIQMTQSPASLSVSVGETVTITCRASENIYSNLAWYQQKQGKSPHLLVYAVTNLADGVPSRFSGSGSGTQYSLKINSLQSEDFGSYYCQHFWGTPYTFGGGTKLEIK
notes: as for B1
For B13, in assay [1], the binding result is given as “no binding (tested: 20 nM (highest analyte concentration))”. In addition, the Kd in assay [2] was 1.24 nM.

B14: RXFP2 mAb 4F6 (antibody, V domains shown)
VH: EVQLQQSGPELVKPGASVKMSCKASGYTFTNYVLHWVKQKPGQGLEWIGYINPYNDGSKYNEKFKGRATLTSDKSSSTAYMELSSLTSEDSAVYYCARGGWLLDYFDYWGQGTTLTVSS
VL: DVLMTQSPLSLPVSLGEQASISCRSSQSIVHSDGDTYLEWYLQKPGQSPNLLIYKVSNRFSGVPDRFSGSGSGTDFTLKISRVEAEDLGVYYCFQGSHVPPTFGGGTKLEIK
notes: as for B1
For B14, in assay [3], the binding result is given as “binds”. Also, the Kd in assay [1] was 11.7 nM; in assay [2] it was 1.7 nM.

B15: RXFP2 mAb 2H3 (antibody, V domains shown)
VH: QVTLKESGPGILQPSQTLSLTCSFSGFSLSTSGMSVGWIRQPSGKGLEWLAHIWWNDDKYYNPALKSRLTISKDTSNNQVFLKIASVVTADTATYYCARIGYYDGSPHAMDYWGQGTSVTVSS
VL: not shown
notes: as for B1
Regarding B15, the binding result in assay [1] is “no binding (tested: 20 nM (highest analyte concentration))”.

B16: RXFP2 mAb 4A5 (antibody, V domains shown)
VH: DVQLVESGGGLVQPGGSRKLSCAASGFTFSTFGMHWVRQAPEKGLEWVAYISSGSSTIYYADTVKGRFTISRDNPKNTLFLQMTSLRSDDTAMYYCSRSYYGSAHYFDYWGQGTTLTVSS
VL: DIQMTQSPASLSVSVGETVTITCRASENIYSNLAWYQQKQGKSPQLLVYVATNLADGVPSRFSGSGSGTQYSLRINNLQSEDFGNYYCQHFWGTPPTFGGGTKLEIK
notes: as for B1
Take B16: the binding result in assay [1] is reported as “no binding (tested: 20 nM (highest analyte concentration))”. In addition, the Kd in assay [2] was found to be 4.23 nM.
